Measurements: doi:10.1101/2022.09.15.508097 (bioRxiv, 2022)

Assays:
HAT-MBP-ZNF518B^770–987 = biological target: T1, HAT-MBP-ZNF518B^770–987 (human, UniProt Q9C0D4 770-987); assay: pull-down
T1 sequence: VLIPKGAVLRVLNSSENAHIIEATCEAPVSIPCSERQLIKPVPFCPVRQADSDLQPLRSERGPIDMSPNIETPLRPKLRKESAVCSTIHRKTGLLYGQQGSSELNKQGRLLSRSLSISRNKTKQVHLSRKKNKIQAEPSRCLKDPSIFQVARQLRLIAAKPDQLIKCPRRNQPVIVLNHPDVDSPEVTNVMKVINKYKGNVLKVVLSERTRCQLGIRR

[1] = biological target: T2, TetR-EYFP-ZNF518B^878–987 (human, UniProt Q9C0D4 878-987); assay: fluorescence microscopy-based interaction-trap
T2 sequence: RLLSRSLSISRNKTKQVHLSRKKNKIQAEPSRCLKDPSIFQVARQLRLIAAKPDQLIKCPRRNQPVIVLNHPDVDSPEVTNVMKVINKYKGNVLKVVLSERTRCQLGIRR

[2] = biological target: T3, TetR-EYFP-ZNF518B^770–987 (human, UniProt Q9C0D4 770-987); assay: fluorescence microscopy-based interaction-trap
T3 sequence: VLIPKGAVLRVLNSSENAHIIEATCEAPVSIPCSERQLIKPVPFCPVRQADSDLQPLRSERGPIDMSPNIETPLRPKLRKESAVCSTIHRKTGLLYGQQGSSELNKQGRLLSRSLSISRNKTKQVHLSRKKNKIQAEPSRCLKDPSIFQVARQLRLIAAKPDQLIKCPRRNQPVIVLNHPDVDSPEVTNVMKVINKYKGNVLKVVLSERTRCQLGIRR

[3] = biological target: T4, TetR-EYFP-ZNF518B^344–987 (human, UniProt Q9C0D4 344-987); assay: fluorescence microscopy-based interaction-trap
T4 sequence: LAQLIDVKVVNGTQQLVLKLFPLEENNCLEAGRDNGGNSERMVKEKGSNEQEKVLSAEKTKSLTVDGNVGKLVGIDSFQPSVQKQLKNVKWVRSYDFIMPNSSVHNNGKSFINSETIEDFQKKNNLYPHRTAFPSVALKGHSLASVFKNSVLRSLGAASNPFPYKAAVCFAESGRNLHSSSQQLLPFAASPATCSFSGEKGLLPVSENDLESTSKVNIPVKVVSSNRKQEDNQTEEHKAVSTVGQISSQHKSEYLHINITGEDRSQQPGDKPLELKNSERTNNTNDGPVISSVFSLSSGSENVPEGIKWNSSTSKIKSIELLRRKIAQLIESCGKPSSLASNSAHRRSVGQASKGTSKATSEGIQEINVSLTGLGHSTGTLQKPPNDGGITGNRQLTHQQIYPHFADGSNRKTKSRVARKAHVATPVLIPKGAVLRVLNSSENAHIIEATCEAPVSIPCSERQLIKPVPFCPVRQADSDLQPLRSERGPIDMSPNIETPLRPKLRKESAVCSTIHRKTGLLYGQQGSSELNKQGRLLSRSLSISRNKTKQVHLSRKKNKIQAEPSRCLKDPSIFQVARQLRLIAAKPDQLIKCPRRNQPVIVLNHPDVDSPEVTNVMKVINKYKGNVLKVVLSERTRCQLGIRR

[4] = biological target: T5, TetR-EYFP-ZNF518B^555–1074 (human, UniProt Q9C0D4 555-1074); assay: fluorescence microscopy-based interaction-trap
T5 sequence: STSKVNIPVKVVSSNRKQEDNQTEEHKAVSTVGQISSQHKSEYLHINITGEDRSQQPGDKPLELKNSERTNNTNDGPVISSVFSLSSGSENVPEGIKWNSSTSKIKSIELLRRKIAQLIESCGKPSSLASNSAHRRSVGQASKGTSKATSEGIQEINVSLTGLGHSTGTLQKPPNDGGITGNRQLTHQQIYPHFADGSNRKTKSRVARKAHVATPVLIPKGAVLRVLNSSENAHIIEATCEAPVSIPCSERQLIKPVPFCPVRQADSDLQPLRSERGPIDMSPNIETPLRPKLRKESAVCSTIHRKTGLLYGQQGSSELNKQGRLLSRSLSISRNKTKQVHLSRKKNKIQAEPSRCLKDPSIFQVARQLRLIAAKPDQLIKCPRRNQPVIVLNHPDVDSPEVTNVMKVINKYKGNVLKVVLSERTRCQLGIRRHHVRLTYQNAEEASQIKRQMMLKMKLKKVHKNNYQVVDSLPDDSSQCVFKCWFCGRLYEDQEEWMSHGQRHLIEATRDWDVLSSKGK

[5] = biological target: T6, TetR-EYFP-ZNF518B^878–1074 (human, UniProt Q9C0D4 878-1074); assay: fluorescence microscopy-based interaction-trap
T6 sequence: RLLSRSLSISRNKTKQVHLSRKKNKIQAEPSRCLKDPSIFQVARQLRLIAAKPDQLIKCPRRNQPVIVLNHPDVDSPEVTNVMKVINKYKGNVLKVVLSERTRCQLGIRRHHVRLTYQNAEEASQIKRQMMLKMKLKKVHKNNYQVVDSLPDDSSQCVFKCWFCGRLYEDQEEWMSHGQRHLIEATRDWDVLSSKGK

[6] = biological target: T7, TetR-EYFP-ZNF518B^344–1074 (human, UniProt Q9C0D4 344-1074); assay: fluorescence microscopy-based interaction-trap
T7 sequence: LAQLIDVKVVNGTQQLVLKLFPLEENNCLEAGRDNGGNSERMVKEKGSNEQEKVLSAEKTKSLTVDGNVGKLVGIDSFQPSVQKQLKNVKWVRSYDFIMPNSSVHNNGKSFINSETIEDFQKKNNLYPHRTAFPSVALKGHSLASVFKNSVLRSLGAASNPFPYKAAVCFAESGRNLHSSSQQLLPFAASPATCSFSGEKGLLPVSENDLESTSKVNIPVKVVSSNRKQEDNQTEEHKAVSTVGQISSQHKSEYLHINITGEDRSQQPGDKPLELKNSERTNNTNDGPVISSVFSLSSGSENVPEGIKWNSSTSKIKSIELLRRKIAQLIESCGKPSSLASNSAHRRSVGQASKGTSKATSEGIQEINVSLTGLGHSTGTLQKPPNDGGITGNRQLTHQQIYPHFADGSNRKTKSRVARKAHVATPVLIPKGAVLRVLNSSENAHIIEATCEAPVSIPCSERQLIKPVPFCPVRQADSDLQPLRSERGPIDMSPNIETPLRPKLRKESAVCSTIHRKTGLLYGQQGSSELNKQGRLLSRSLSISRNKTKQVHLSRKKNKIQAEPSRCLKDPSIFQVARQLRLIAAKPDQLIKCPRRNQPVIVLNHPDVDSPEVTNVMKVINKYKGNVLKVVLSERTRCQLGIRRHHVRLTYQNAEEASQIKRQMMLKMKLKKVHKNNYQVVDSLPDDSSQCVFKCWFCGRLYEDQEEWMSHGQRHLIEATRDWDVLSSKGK

TetR-EYFP-ZNF518B^WT = biological target: T8, TetR-EYFP-ZNF518B^WT (human, UniProt Q9C0D4 1-1074); assay: fluorescence microscopy-based interaction-trap
T8 sequence: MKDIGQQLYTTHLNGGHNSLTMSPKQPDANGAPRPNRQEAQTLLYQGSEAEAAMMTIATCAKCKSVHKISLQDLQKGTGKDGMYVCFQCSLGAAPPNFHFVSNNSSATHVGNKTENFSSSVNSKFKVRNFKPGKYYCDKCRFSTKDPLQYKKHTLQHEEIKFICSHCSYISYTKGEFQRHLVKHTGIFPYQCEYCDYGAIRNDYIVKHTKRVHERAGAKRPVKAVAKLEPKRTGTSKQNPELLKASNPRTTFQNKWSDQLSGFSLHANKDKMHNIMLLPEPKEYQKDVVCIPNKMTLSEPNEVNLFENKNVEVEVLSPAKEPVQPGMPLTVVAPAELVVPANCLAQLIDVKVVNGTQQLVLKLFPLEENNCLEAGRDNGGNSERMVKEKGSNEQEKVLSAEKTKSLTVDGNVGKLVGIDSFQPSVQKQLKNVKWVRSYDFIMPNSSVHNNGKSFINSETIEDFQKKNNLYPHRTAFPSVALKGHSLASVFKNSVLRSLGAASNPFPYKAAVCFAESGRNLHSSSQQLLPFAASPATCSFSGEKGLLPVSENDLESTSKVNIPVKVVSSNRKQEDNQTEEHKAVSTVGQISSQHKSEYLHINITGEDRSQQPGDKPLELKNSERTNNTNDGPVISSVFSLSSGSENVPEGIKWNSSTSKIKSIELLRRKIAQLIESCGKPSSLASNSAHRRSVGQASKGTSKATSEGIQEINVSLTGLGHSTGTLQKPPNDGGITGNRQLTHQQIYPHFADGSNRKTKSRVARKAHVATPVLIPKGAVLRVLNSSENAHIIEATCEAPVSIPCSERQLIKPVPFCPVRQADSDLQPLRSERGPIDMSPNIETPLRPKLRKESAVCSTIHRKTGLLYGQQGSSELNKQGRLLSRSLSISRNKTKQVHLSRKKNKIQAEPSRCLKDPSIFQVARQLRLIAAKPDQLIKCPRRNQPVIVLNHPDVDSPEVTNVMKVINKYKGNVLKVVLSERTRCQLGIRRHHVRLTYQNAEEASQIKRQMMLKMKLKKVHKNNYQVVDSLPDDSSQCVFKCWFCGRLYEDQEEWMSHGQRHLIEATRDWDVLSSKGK

B1: His6-GST-HP1β (natural protein)
chain: not shown
- binding result (HAT-MBP-ZNF518B^770–987): binds

B2: Halo-HP1γ (natural protein)
chain: not shown
modifications: Halo Tag TMR ligand on the Halo tag
- % of cells with recruitment to alphoid^tetO [1]: > 75%
- % of cells with recruitment to alphoid^tetO [2]: > 75%
- % of cells with recruitment to alphoid^tetO [3]: > 75%
- % of cells with recruitment to alphoid^tetO [4]: > 75%
- % of cells with recruitment to alphoid^tetO [5]: > 75%
- % of cells with recruitment to alphoid^tetO [6]: > 75%

B3: His6-GST-HP1γ (natural protein)
chain: not shown
- binding result (HAT-MBP-ZNF518B^770–987): binds

B4: Halo-HP1β (natural protein)
chain: not shown
modifications: Halo Tag TMR ligand on the Halo tag
- % of cells with recruitment to alphoid^tetO [1]: > 75%
- % of cells with recruitment to alphoid^tetO [2]: > 75%
- % of cells with recruitment to alphoid^tetO [3]: > 75%
- % of cells with recruitment to alphoid^tetO [4]: > 75%
- % of cells with recruitment to alphoid^tetO (TetR-EYFP-ZNF518B^WT): 58%
- % of cells with recruitment to alphoid^tetO [5]: > 75%
- % of cells with recruitment to alphoid^tetO [6]: > 75%
